Three molecules from patent US20220040304A1, “A COMPOSITION FOR CANCER CELL DEATH AND ITS USE” (Industry-University Cooperation Foundation Hanyang …, priority 2018, published 2022) can be followed below.

Holding throughout (type): cell-based, human
The subject of assay [1] is MCF-7 cells. Description: MTT colorimetric change and cell viability after reaction with Co-h substrate. As to conditions: MCF-7, protein 10 μM 24 hours, Co-h 150 μM, without light irradiation. The method, then:
MCF-7 cells were seeded at 5×10^5 cells/mL in a 96-well plate (SPL Cell Culture Plate, 96 well (SPL, Cat #30096)), and cultured at 37° C. for 24 hours (overnight).
After the culture for 24 hours, the cells were washed with FBS & Phenol red-free media (RPMI), and 100 μL of an FBS-free medium containing the purified protein (final concentration: 10 μM) was added, followed by reaction at 37° C. for 24 hours.
After the reaction for 24 hours, the cells were washed with FBS & Phenol red-free media (RPMI), and then 100 μL of FBS & Phenol red-free media (RPMI) containing a Co-h substrate solution (final concentration: 150 μM) was added. The cells were washed with FBS & Phenol red-free media (RPMI), and 100 μL of fresh FBS & Phenol red-free media (RPMI) were then added.
10 μL of 3-(4,5-dimethylthiazol-2-yl)-2,5-diphenyltetrazolium bromide (MTT) (final concentration: 1×) was added, followed by reaction at 37° C. for 4 hours. After 100 μL of a supernatant was removed, 100 μL of DMSO was added, followed by reaction for 10 minutes. The colorimetric change of MTT according to a protein type treated to the cells and the light irradiation time was checked, and then cell viability was confirmed by measuring the absorbance intensity at 570 nm using a plate reader.
MTT is an assay for measuring cell proliferation or live cells through the presence of blue-violet insoluble […] in the mitochondria of the live cells, where it has been reduced from a yellow soluble substrate, MTT tetrazolium, by the action of a dehydrogenase.

Assay [2] has as its system MDA-MB-231. Description: Cell death with Co-h substrate by cell type (SYTOX Green or EthD-1/DAPI). Particulars: MDA-MB-231, protein 10 μM, Co-h 150 μM for 5 minutes. The method, then:
The cells were seeded at 5×10^5 cells/mL in 96-well plates (SPL Cell Culture Plate, 96 well (SPL, Cat #30096)), and cultured at 37° C. for 24 hours (overnight). After the culture for 24 hours, the cells were washed with FBS & phenol red-free media, and 100 μL of FBS & phenol red-free media containing a purified protein (final concentration: 10 μM) was added, followed by reaction at 37° C. for 24 hours.
Subsequently, the cells were washed with FBS & phenol red-free media, and 100 μL of FBS & phenol red-free media was added. 100 μL of FBS & Phenol red-free media (RPMI) containing a Co-h substrate solution (final concentration: 150 μM) was added, followed by reaction at 37° C. for 5 minutes.
After the reaction, 50 μL of SYTOX Green (final concentration: 261 nM) or 90 μL of ethidium homodimer (EthD-1) (final concentration 1×), which stains DNA of dead cells, was added, followed by reaction at 37° C. for 30 minutes. 10 μL of DAPI staining DNA of live cells was added, followed by reaction for 5 minutes. Cell death was confirmed by observing KillerRed, SYTOX Green, MiniSOG, EthD-1 and DAPI fluorescence using a confocal microscope.

Assay [3] deals with MCF-7 cells. Description: MTT colorimetric change and cell viability after light irradiation. As to conditions: MCF-7, protein 10 μM 24 hours, light 10 mW/cm^2, no Co-h. The method, then:
MCF-7 cells were seeded at 5×10^5 cells/mL in a 96-well plate (SPL Cell Culture Plate, 96 well (SPL, Cat #30096)), and cultured at 37° C. for 24 hours (overnight). After the overnight culture, the cells were washed with FBS & Phenol red-free media (RPMI, Well Gene., Korea, Cat #LM011-02), and 100 μL of an FBS-free medium containing the purified protein (final concentration: 10 μM) was added, followed by reaction at 37° C. for 24 hours. After the reaction for 24 hours, the cells were washed with FBS & Phenol red-free media (RPMI), and then 100 μL of FBS & Phenol red-free media (RPMI) was added again. After light irradiation at 10 mW/cm^2 over time, the cells were washed with FBS & Phenol red-free media (RPMI), and 100 μL of FBS & Phenol red-free media (RPMI) was added again. 10 μL of 3-(4,5-dimethylthiazol-2-yl)-2,5-diphenyltetrazolium bromide (MTT; Cell Biolabs Inc., USA; final concentration: 1×) was added, followed by reaction at 37° C. for 4 hours. 100 μL of a supernatant was removed, and 100 μL of DMSO (Sigma-Aldrich., USA) was added, followed by reaction for 10 minutes. The colorimetric change of MTT according to a protein type treated to the cells and light irradiation time was confirmed, and then cell viability was confirmed by measuring the absorbance intensity at 570 nm using a plate reader.

Assay [4] deals with MCF-7 cells. Description: Cell death by SYTOX Green or EthD-1 and DAPI fluorescence (light irradiation or Co-h). As to conditions: MCF-7, protein 10 μM 24 hours; light 10 mW/cm^2 or Co-h 150 μM over time. The method, then:
MCF-7 cells were seeded at 5×10^5 cells/mL in a 96-well plate (SPL Cell Culture Plate, 96 well (SPL, Cat #30096)), and cultured at 37° C. for 24 hours (overnight). After the culture for 24 hours, the cells were washed with FBS & Phenol red-free media (RPMI), and 100 μL of an FBS-free medium containing the purified protein (final concentration: 10 μM) was added, followed by reaction at 37° C. for 24 hours.
After the reaction for 24 hours, the cells were washed with FBS & Phenol red-free media (RPMI), and then 100 μL of FBS & Phenol red-free media (RPMI) was then added.
After the reaction, 8.1 μL of FMN (final concentration: 150 μM) was added. After reaction for 18 hours or 24 hours, the cells were washed with FBS & Phenol red-free media (RPMI), and 100 μL of FBS & Phenol red-free media (RPMI) containing FMN (final concentration: 150 μM) was added, followed by reaction at 37° C. for 1 hour.
After the irradiation with light at 10 mW/cm^2 over time, 50 μL of SYTOX Green (Thermo Scientific Inc., USA; final concentration: 261 nM) staining DNA of dead cells was added and reacted at 37° C. for 30 minutes, and 10 μL of DAPI (Vecta Labs., Australia) staining DNA of live cells was added and reacted for 5 minutes.
SYTOX Green or EthD-1 and DAPI fluorescence images were observed using a confocal microscope according to a protein type treated to cells and i) light irradiation time or ii) reaction time with a Co-h substrate, and cell death was confirmed by measuring relative fluorescence intensity at an excitation wavelength of 504 nm and an emission wavelength of 523 nm of SYTOX Green, and an excitation wavelength of 525 nm and an emission wavelength of 590 nm of EthD-1 using a plate reader.
Whether or not Cell death was observed by fluorescence microscopy using SYTOX Green (dead cell-specific dye, green) or EthD-1 (dead cell-specific dye, red) and DAPI (live cell-specific dye, blue).

Entries after “also recorded” stand apart in the source; their conditions may differ.

B1: RLuc8.6-KR: fusion protein of RLuc8.6 and KillerRed without lead peptide, 69 kDa (protein)
chain: MRGSHHHHHHGMASMTGGQQMGRDLYDDDDKDPMASKVYDPEQRKRMITGPQWWARCKQMNVLDSFINYYDSEKHAENAVIFLHGNATSSYLWRHVVPHIEPVARCIIPDLIGMGKSGKSGNGSYRLLDHYKYLTAWFELLNLPKKIIFVGHDWGSALAFHYAYEHQDRIKAIVHMESVVDVIESWMGWPDIEEELALIKSEEGEKMVLENNFFVETLLPSKIMRKLEPEEFAAYLEPFKEKGEVRRPTLSWPREIPLVKGGKPDVVQIVRNYNAYLRASDDLPKLFIESDPGFFYNAIVEGAKKFPNTEFVKVKGLHFLQEDAPDEMGKYIKSFVERVLKNEQEFGGGMLCCMRRTKQVEKNDEDQKISEGGPALFQSDMTFKIFIDGEVNGQKFTIVADGSSKFPHGDFNVHAVCETGKLPMSWKPICHLIQYGEPFFARYPDGISHFAQECFPEGLSIDRTVRFENDGTMTSHHTYELDDTCVVSRITVNCDGFQPDGPIMRDQLVDILPNETHMFPHGPNAVRQLAFIGFTTADGGLMMGHFDSKMTFNGSRAIEIPGPHFVTIITKQMRDTSDKRDHVCQREVAYAHSVPRITSAIGSDED
modifications: pRSET-RLuc8.6-KillerRed
On to B1, for which the “cell viability / colorimetric change of MTT with reaction time with Co-h” value (“cell viability / colorimetric change … with Co-h” for short) in assay [1] is “the staining becomes pink”. The “cell death with Co-h substrate” value in assay [2] is “none of the six breast cancer cell lines were killed”. For the same molecule, the “cell viability / colorimetric change of MTT with light irradiation time” value in assay [3] was “alive”. Moreover, the “cell death by staining (SYTOX Green or EthD-1 dead cells, DAPI live cells)” value (“cell death by staining” for short) in assay [4] is listed as “stained with DAPI”.

B2: RLuc8.6-KR-LP: fusion protein of RLuc8.6, KillerRed and lead peptide WLEAAYQRFL, 71 kDa (protein)
chain: MRGSHHHHHHGMASMTGGQQMGRDLYDDDDKDPMASKVYDPEQRKRMITGPQWWARCKQMNVLDSFINYYDSEKHAENAVIFLHGNATSSYLWRHVVPHIEPVARCIIPDLIGMGKSGKSGNGSYRLLDHYKYLTAWFELLNLPKKIIFVGHDWGSALAFHYAYEHQDRIKAIVHMESVVDVIESWMGWPDIEEELALIKSEEGEKMVLENNFFVETLLPSKIMRKLEPEEFAAYLEPFKEKGEVRRPTLSWPREIPLVKGGKPDVVQIVRNYNAYLRASDDLPKLFIESDPGFFYNAIVEGAKKFPNTEFVKVKGLHFLQEDAPDEMGKYIKSFVERVLKNEQEFGGGMLCCMRRTKQVEKNDEDQKISEGGPALFQSDMTFKIFIDGEVNGQKFTIVADGSSKFPHGDFNVHAVCETGKLPMSWKPICHLIQYGEPFFARYPDGISHFAQECFPEGLSIDRTVRFENDGTMTSHHTYELDDTCVVSRITVNCDGFQPDGPIMRDQLVDILPNETHMFPHGPNAVRQLAFIGFTTADGGLMMGHFDSKMTFNGSRAIEIPGPHFVTIITKQMRDTSDKRDHVCQREVAYAHSVPRITSAIGSDEDGGGWLEAAYQRFL
modifications: pRSET-RLuc8.6-KillerRed-Lead peptide
On to B2, for which, in assay [1], the “cell viability / colorimetric change … with Co-h” value was “die and cell viability is reduced”. Further, the “cell death with Co-h substrate” value in assay [2] is given as “killed them”. The “cell viability / colorimetric change of MTT with light irradiation time” value in assay [3] is “killed; also recorded: cell viability decreased”. Further, the “cell death by staining” value in assay [4] was “stained with SYTOX Green or EthD-1; also recorded: the number of dead cells increases”.

B3: KR: first protein KillerRed, ROS-generating protein (superoxide), expressed from pRSET-KillerRed, 31 kDa (protein)
chain: MRGSHHHHHHGMASMTGGQQMGRDLYDDDDKDPMLCCMRRTKQVEKNDEDQKISEGGPALFQSDMTFKIFIDGEVNGQKFTIVADGSSKFPHGDFNVHAVCETGKLPMSWKPICHLIQYGEPFFARYPDGISHFAQECFPEGLSIDRTVRFENDGTMTSHHTYELDDTCVVSRITVNCDGFQPDGPIMRDQLVDILPNETHMFPHGPNAVRQLAFIGFTTADGGLMMGHFDSKMTFNGSRAIEIPGPHFVTIITKQMRDTSDKRDHVCQREVAYAHSVPRITSAIGSDED
modifications: pRSET-KillerRed
notes: first protein KillerRed, ROS-generating protein (superoxide), expressed from pRSET-KillerRed, 31 kDa
As to B3, the “cell viability / colorimetric change … with Co-h” value in assay [1] is recorded as “the staining becomes pink”. In assay [3], the “cell viability / colorimetric change of MTT with light irradiation time” value is on record as “alive”. The “cell death by staining” value in assay [4] is listed as “stained with DAPI”.
